Literature values in PMC9331682.

Molecular target: PD-1 (Homo sapiens) (UniProt Q15116)
Sequence (Q15116 25-170): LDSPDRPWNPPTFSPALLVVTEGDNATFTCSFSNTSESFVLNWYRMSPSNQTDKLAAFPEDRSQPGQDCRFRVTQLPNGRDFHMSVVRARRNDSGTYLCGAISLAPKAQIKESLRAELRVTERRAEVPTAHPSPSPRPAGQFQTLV

Kd: 0.3 nM
Substance: Dostarlimab
